Where two headings read alike, the source gives them in different places.
Assays:
[1] = biological target: Env (gp120) of HIV-1 strain T257-31 (HIV-1)
[2] = biological target: Env (gp120) of HIV-1 strain AC10.0.29 (HIV-1)
[3] = biological target: Env (gp120) of HIV-1 strain REJO4541.67 (HIV-1)
[4] = biological target: Env (gp120) of HIV-1 strain 0815.v3.c3 (HIV-1)
[5] = biological target: Env (gp120) of HIV-1 strain 703357.C02 (HIV-1)
[6] = biological target: Env (gp120) of HIV-1 strain 6545.v4.c1 (HIV-1)
[7] = biological target: Env (gp120) of HIV-1 strain 6480.v4.c25 (HIV-1)
[8] = biological target: Env (gp120) of HIV-1 strain Q769.d22 (HIV-1)
[9] = biological target: Env (gp120) of HIV-1 strain ZM249M.PL1 (HIV-1)
[10] = biological target: Env (gp120) of HIV-1 strain CNE30 (HIV-1)
[11] = biological target: Env (gp120) of HIV-1 strain Du156.12 (HIV-1)
[12] = biological target: Env (gp120) of HIV-1 strain 928-28 (HIV-1)
[13] = biological target: Env (gp120) of HIV-1 strain CNE58 (HIV-1)
[14] = biological target: Env (gp120) of HIV-1 strain ZM53M.PB12 (HIV-1)
[15] = biological target: Env (gp120) of HIV-1 strain R1166.c01 (HIV-1)
[16] = biological target: Env (gp120) of HIV-1 strain QH0692.42 (HIV-1)
[17] = biological target: Env (gp120) of HIV-1 strain THRO4156.18 (HIV-1)
[18] = biological target: Env (gp120) of HIV-1 strain CNE21 (HIV-1)
[19] = biological target: Env (gp120) of HIV-1 strain Q842.d12 (HIV-1)
[20] = biological target: Env (gp120) of HIV-1 strain PVO.4 (HIV-1)
[21] = biological target: Env (gp120) of HIV-1 strain C3347.c11 (HIV-1)
[22] = biological target: Env (gp120) of HIV-1 strain 1054_07_TC4_1499 (HIV-1)
[23] = biological target: Env (gp120) of HIV-1 strain ZM233M.PB6 (HIV-1)
[24] = biological target: Env (gp120) of HIV-1 strain 3103.v3.c10 (HIV-1)
[25] = biological target: Env (gp120) of HIV-1 strain 6535.3 (HIV-1)
[26] = biological target: Env (gp120) of HIV-1 strain Ce2010_F5 (HIV-1)
[27] = biological target: Env (gp120) of HIV-1 strain 231966.c02 (HIV-1)
[28] = biological target: Env (gp120) of HIV-1 strain X2131_C1_B5 (HIV-1)
[29] = biological target: Env (gp120) of HIV-1 strain T251-18 (HIV-1)
[30] = biological target: Env (gp120) of HIV-1 strain CNE53 (HIV-1)
[31] = biological target: Env (gp120) of HIV-1 strain ZM197M.PB7 (HIV-1)
[32] = biological target: Env (gp120) of HIV-1 strain 1006_11_C3_1601 (HIV-1)
[33] = biological target: Env (gp120) of HIV-1 strain 3817.v2.c59 (HIV-1)
[34] = biological target: Env (gp120) of HIV-1 strain Du422.1 (HIV-1)
[35] = biological target: Env (gp120) of HIV-1 strain TRJO4551.58 (HIV-1)
[36] = biological target: Env (gp120) of HIV-1 strain ZM135M.PL10a (HIV-1)
[37] = biological target: Env (gp120) of HIV-1 strain ZM109F.PB4 (HIV-1)
[38] = biological target: Env (gp120) of HIV-1 strain ZM214M.PL15 (HIV-1)
[39] = biological target: Env (gp120) of HIV-1 strain Ce0393_C3 (HIV-1)
[40] = biological target: Env (gp120) of HIV-1 strain 3301.v1.c24 (HIV-1)
[41] = biological target: Env (gp120) of HIV-1 strain Ce1176_A3 (HIV-1)
[42] = biological target: Env (gp120) of HIV-1 strain 3415.v1.c1 (HIV-1)
[43] = biological target: Env (gp120) of HIV-1 strain Q259.d2.17 (HIV-1)
[44] = biological target: Env (gp120) of HIV-1 strain R2184.c04 (HIV-1)
[45] = biological target: Env (gp120) of HIV-1 strain TRO.11 (HIV-1)
[46] = biological target: Env (gp120) of HIV-1 strain AC10.0.29 (HIV-1); remark: listed apart in the source
[47] = biological target: Env (gp120) of HIV-1 strain SC422661.8 (HIV-1)
[48] = biological target: Env (gp120) of HIV-1 strain CAP210.2.00.E8 (HIV-1)
[49] = biological target: Env (gp120) of HIV-1 strain CAP45.2.00.G3 (HIV-1)
[50] = biological target: Env (gp120) of HIV-1 strain TRO.11 (HIV-1); remark: listed apart in the source

**Q.** Which results are given for NIH45-46^G54W IgG (antibody)?
**A.** neutralization IC50 [1]: 0.13 µg/mL; neutralization IC50 [2]: 0.13 µg/mL; neutralization IC50 [3]: 0.002 µg/mL; neutralization IC50 [4]: < 0.001 µg/mL; neutralization IC50 [5]: 3.43 µg/mL; neutralization IC50 [6]: 18.9 µg/mL; neutralization IC50 [7]: 0.004 µg/mL; neutralization IC50 [8]: < 0.001 µg/mL; neutralization IC50 [9]: 0.002 µg/mL; neutralization IC50 [10]: 0.052 µg/mL; neutralization IC50 [11]: < 0.001 µg/mL; neutralization IC50 [12]: 0.06 µg/mL; neutralization IC50 [13]: 0.02 µg/mL; neutralization IC50 [14]: 0.04 µg/mL; neutralization IC50 [15]: 0.13 µg/mL; neutralization IC50 [16]: 0.37 µg/mL; neutralization IC50 [17]: 0.54 µg/mL; neutralization IC50 [18]: 0.03 µg/mL; neutralization IC50 [19]: 0.005 µg/mL; neutralization IC50 [20]: 0.05 µg/mL; neutralization IC50 [21]: < 0.001 µg/mL; neutralization IC50 [22]: 0.04 µg/mL; neutralization IC50 [23]: 0.02 µg/mL; neutralization IC50 [24]: 0.2 µg/mL; neutralization IC50 [25]: 0.03 µg/mL; neutralization IC50 [26]: 0.038 µg/mL; neutralization IC50 [27]: 0.02 µg/mL; neutralization IC50 [28]: 0.05 µg/mL; neutralization IC50 [29]: 0.26 µg/mL; neutralization IC50 [30]: < 0.001 µg/mL; neutralization IC50 [31]: 0.04 µg/mL; neutralization IC50 [32]: < 0.001 µg/mL; neutralization IC50 [33]: > 50 µg/mL; neutralization IC50 [34]: > 50 µg/mL; neutralization IC50 [35]: 0.01 µg/mL; neutralization IC50 [36]: 0.04 µg/mL; neutralization IC50 [37]: 0.002 µg/mL; neutralization IC50 [38]: 0.03 µg/mL; neutralization IC50 [39]: 0.013 µg/mL; neutralization IC50 [40]: < 0.001 µg/mL; neutralization IC50 [41]: 0.16 µg/mL; neutralization IC50 [42]: < 0.001 µg/mL; neutralization IC50 [43]: < 0.001 µg/mL; neutralization IC50 [44]: 0.005 µg/mL; neutralization IC50 [45]: 0.04 µg/mL; neutralization IC50 [46]: 0.2 µg/mL; neutralization IC50 [47]: 0.03 µg/mL; neutralization IC50 [48]: 41 µg/mL; neutralization IC50 [49]: 6.6 µg/mL; neutralization IC50 [50]: 0.09 µg/mL

**Q.** What does the source list for NIH45-46^G54Y IgG (antibody)?
**A.** neutralization IC50 [1]: 0.18 µg/mL; neutralization IC50 [2]: 0.19 µg/mL; neutralization IC50 [3]: 0.007 µg/mL; neutralization IC50 [4]: < 0.001 µg/mL; neutralization IC50 [5]: 5.6 µg/mL; neutralization IC50 [6]: > 50 µg/mL; neutralization IC50 [7]: 0.018 µg/mL; neutralization IC50 [8]: 0.007 µg/mL; neutralization IC50 [9]: 0.003 µg/mL; neutralization IC50 [10]: 0.099 µg/mL; neutralization IC50 [11]: 0.007 µg/mL; neutralization IC50 [12]: 0.12 µg/mL; neutralization IC50 [13]: 0.04 µg/mL; neutralization IC50 [14]: 0.06 µg/mL; neutralization IC50 [15]: 0.24 µg/mL; neutralization IC50 [16]: 0.52 µg/mL; neutralization IC50 [17]: 0.66 µg/mL; neutralization IC50 [18]: 0.07 µg/mL; neutralization IC50 [19]: 0.015 µg/mL; neutralization IC50 [20]: 0.06 µg/mL; neutralization IC50 [21]: 0.011 µg/mL; neutralization IC50 [22]: 0.064 µg/mL; neutralization IC50 [23]: 0.16 µg/mL; neutralization IC50 [24]: 0.3 µg/mL; neutralization IC50 [25]: 0.08 µg/mL; neutralization IC50 [26]: 0.049 µg/mL; neutralization IC50 [27]: 0.06 µg/mL; neutralization IC50 [28]: 0.1 µg/mL; neutralization IC50 [29]: 0.35 µg/mL; neutralization IC50 [30]: 0.006 µg/mL; neutralization IC50 [31]: 0.07 µg/mL; neutralization IC50 [32]: 0.005 µg/mL; neutralization IC50 [33]: > 50 µg/mL; neutralization IC50 [34]: > 50 µg/mL; neutralization IC50 [35]: 0.03 µg/mL; neutralization IC50 [36]: 0.09 µg/mL; neutralization IC50 [37]: 0.026 µg/mL; neutralization IC50 [38]: 0.06 µg/mL; neutralization IC50 [39]: 0.036 µg/mL; neutralization IC50 [40]: 0.003 µg/mL; neutralization IC50 [41]: 0.21 µg/mL; neutralization IC50 [42]: < 0.001 µg/mL; neutralization IC50 [43]: 0.009 µg/mL; neutralization IC50 [44]: 0.015 µg/mL; neutralization IC50 [45]: 0.08 µg/mL; neutralization IC50 [46]: 0.4 µg/mL; neutralization IC50 [47]: 0.06 µg/mL; neutralization IC50 [48]: > 50 µg/mL; neutralization IC50 [49]: 45 µg/mL; neutralization IC50 [50]: 0.1 µg/mL
